Literature values in PMC3982939.

Legend:
guanylin (Homo sapiens) = guanylin (Homo sapiens) (UniProt Q02747)
[1] = target: uroguanylin (Homo sapiens) (UniProt Q16661)

Substance: Guanylyl cyclase C ECD (from UniProt P25092)
- Kd (guanylin (Homo sapiens)): 10 nM
- Kd [1]: 1 nM
